Assay results taken from the supplement of paper PMC9112550, “Optimization of the antimicrobial peptide Bac7 by deep mutational scanning” (BMC Biology, 2022).

What follows are sequences tested on Escherichia coli TOP10 (assay: shrunken log2 fold change of peptide-encoding DNA abundance (4.5 h post-induction vs induction); higher = less antimicrobial activity (less host growth inhibition)). Conditions: time post-induction: 4.5 h; library: site-saturation at positions 5, 18, 19, 20.
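Further: peptides expressed intracellularly from a pBAD plasmid library in pooled LB shake-flask culture, induced with 0.3% L-arabinose, DNA abundance read by NGS, three biological replicates, DESeq2 with apeglm shrinkage.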

Sequence	shrunken log2 fold change
RRIRARPPRLPRPRPRPKAMPRP	0.00028
RRIRARPPRLPRPRPRPKCIPRP	0.0328
RRIRARPPRLPRPRPRPKCVPRP	0.463
RRIRARPPRLPRPRPRPKCWPRP	0.622
RRIRARPPRLPRPRPRPKDEPRP	0.687
RRIRARPPRLPRPRPRPKGSPRP	0.199
RRIRARPPRLPRPRPRPKGWPRP	0.862
RRIRARPPRLPRPRPRPKHSPRP	0.0875
RRIRARPPRLPRPRPRPKKGPRP	0.364
RRIRARPPRLPRPRPRPKKSPRP	1.2
RRIRARPPRLPRPRPRPKKTPRP	-0.0919
RRIRARPPRLPRPRPRPKMHPRP	0.364
RRIRARPPRLPRPRPRPKMIPRP	-0.0208
RRIRARPPRLPRPRPRPKMYPRP	0.152
RRIRARPPRLPRPRPRPKNHPRP	-0.125
RRIRARPPRLPRPRPRPKPVPRP	0.882
RRIRARPPRLPRPRPRPKRNPRP	0.487
RRIRARPPRLPRPRPRPKSDPRP	0.239
RRIRARPPRLPRPRPRPKTKPRP	0.0731
RRIRARPPRLPRPRPRPKTMPRP	0.352
RRIRARPPRLPRPRPRPKWDPRP	0.373
RRIRARPPRLPRPRPRPKWGPRP	0.418
RRIRARPPRLPRPRPRPKWSPRP	0.354
RRIRARPPRLPRPRPRPKYAPRP	0.354
RRIRARPPRLPRPRPRPKYQPRP	-0.112

Sequence	shrunken log2 fold change
RRIRARPPRLPRPRPRPKYSPRP	-0.39
RRIRARPPRLPRPRPRPLAGPRP	2.52
RRIRARPPRLPRPRPRPLDWPRP	1
RRIRARPPRLPRPRPRPLEDPRP	0.241
RRIRARPPRLPRPRPRPLFCPRP	0.00332
RRIRARPPRLPRPRPRPLFDPRP	0.28
RRIRARPPRLPRPRPRPLFIPRP	-0.331
RRIRARPPRLPRPRPRPLFWPRP	0.678
RRIRARPPRLPRPRPRPLGLPRP	0.353
RRIRARPPRLPRPRPRPLHVPRP	0.0439
RRIRARPPRLPRPRPRPLIEPRP	0.388
RRIRARPPRLPRPRPRPLKAPRP	0.16
RRIRARPPRLPRPRPRPLKCPRP	0.381
RRIRARPPRLPRPRPRPLLTPRP	0.667
RRIRARPPRLPRPRPRPLMDPRP	0.634
RRIRARPPRLPRPRPRPLMEPRP	0.493
RRIRARPPRLPRPRPRPLPDPRP	1.07
RRIRARPPRLPRPRPRPLPMPRP	0.306
RRIRARPPRLPRPRPRPLQGPRP	0.0704
RRIRARPPRLPRPRPRPLRTPRP	0.541
RRIRARPPRLPRPRPRPLSGPRP	0.334
RRIRARPPRLPRPRPRPLTDPRP	0.163
RRIRARPPRLPRPRPRPLTHPRP	0.227
RRIRARPPRLPRPRPRPLTMPRP	0.637
RRIRARPPRLPRPRPRPLTRPRP	0.284

Sequence	shrunken log2 fold change
RRIRARPPRLPRPRPRPLVDPRP	0.498
RRIRARPPRLPRPRPRPLVEPRP	0.666
RRIRARPPRLPRPRPRPLVRPRP	0.264
RRIRARPPRLPRPRPRPLWLPRP	0.302
RRIRARPPRLPRPRPRPLWMPRP	0.264
RRIRARPPRLPRPRPRPLYAPRP	0.0495
RRIRARPPRLPRPRPRPLYKPRP	-0.362
RRIRARPPRLPRPRPRPLYNPRP	-0.225
RRIRARPPRLPRPRPRPLYPPRP	-0.221
RRIRARPPRLPRPRPRPMADPRP	0.357
RRIRARPPRLPRPRPRPMAGPRP	0.163
RRIRARPPRLPRPRPRPMCIPRP	0.143
RRIRARPPRLPRPRPRPMCQPRP	0.13
RRIRARPPRLPRPRPRPMDHPRP	0.267
RRIRARPPRLPRPRPRPMEHPRP	-0.223
RRIRARPPRLPRPRPRPMEMPRP	0.163
RRIRARPPRLPRPRPRPMEVPRP	-0.0122
RRIRARPPRLPRPRPRPMGRPRP	0.275
RRIRARPPRLPRPRPRPMHWPRP	0.548
RRIRARPPRLPRPRPRPMLAPRP	0.881
RRIRARPPRLPRPRPRPMLNPRP	-0.167
RRIRARPPRLPRPRPRPMMIPRP	0.313
RRIRARPPRLPRPRPRPMRNPRP	0.756
RRIRARPPRLPRPRPRPMTPPRP	0.913
RRIRARPPRLPRPRPRPMVNPRP	0.309

Sequence	shrunken log2 fold change
RRIRARPPRLPRPRPRPMVVPRP	-0.0787
RRIRARPPRLPRPRPRPMVWPRP	1.07
RRIRARPPRLPRPRPRPNEPPRP	-0.115
RRIRARPPRLPRPRPRPNGCPRP	-0.0858
RRIRARPPRLPRPRPRPNGLPRP	-0.0319
RRIRARPPRLPRPRPRPNGTPRP	0.021
RRIRARPPRLPRPRPRPNGVPRP	-0.00122
RRIRARPPRLPRPRPRPNHDPRP	-0.141
RRIRARPPRLPRPRPRPNHIPRP	-0.8
RRIRARPPRLPRPRPRPNHLPRP	-0.000432
RRIRARPPRLPRPRPRPNKKPRP	-0.00857
RRIRARPPRLPRPRPRPNKQPRP	0.165
RRIRARPPRLPRPRPRPNKWPRP	-0.0519
RRIRARPPRLPRPRPRPNLKPRP	0.164
RRIRARPPRLPRPRPRPNMEPRP	-0.0484
RRIRARPPRLPRPRPRPNMVPRP	-0.175
RRIRARPPRLPRPRPRPNNYPRP	-0.356
RRIRARPPRLPRPRPRPNQFPRP	-0.014
RRIRARPPRLPRPRPRPNQMPRP	0.143
RRIRARPPRLPRPRPRPNRIPRP	-0.215
RRIRARPPRLPRPRPRPNRLPRP	0.0862
RRIRARPPRLPRPRPRPNSMPRP	-0.527
RRIRARPPRLPRPRPRPNTSPRP	-0.0188
RRIRARPPRLPRPRPRPNTWPRP	0.0711
RRIRARPPRLPRPRPRPNVVPRP	-0.0083

Sequence	shrunken log2 fold change
RRIRARPPRLPRPRPRPNWHPRP	0.163
RRIRARPPRLPRPRPRPNYLPRP	0.00106
RRIRARPPRLPRPRPRPPAQPRP	1.02
RRIRARPPRLPRPRPRPPCVPRP	0.342
RRIRARPPRLPRPRPRPPDAPRP	1.25
RRIRARPPRLPRPRPRPPDMPRP	0.778
RRIRARPPRLPRPRPRPPDPPRP	1
RRIRARPPRLPRPRPRPPESPRP	1.02
RRIRARPPRLPRPRPRPPFQPRP	0.415
RRIRARPPRLPRPRPRPPHWPRP	1.08
RRIRARPPRLPRPRPRPPIPPRP	0.319
RRIRARPPRLPRPRPRPPISPRP	0.027
RRIRARPPRLPRPRPRPPKQPRP	0.0504
RRIRARPPRLPRPRPRPPLIPRP	0.299
RRIRARPPRLPRPRPRPPLVPRP	0.626
RRIRARPPRLPRPRPRPPMAPRP	0.484
RRIRARPPRLPRPRPRPPMTPRP	0.88
RRIRARPPRLPRPRPRPPNVPRP	0.109
RRIRARPPRLPRPRPRPPPRPRP	1.56
RRIRARPPRLPRPRPRPPQNPRP	1.05
RRIRARPPRLPRPRPRPPRHPRP	0.937
RRIRARPPRLPRPRPRPPRPPRP	1
RRIRARPPRLPRPRPRPPSPPRP	0.669
RRIRARPPRLPRPRPRPPTDPRP	0.839
RRIRARPPRLPRPRPRPPTSPRP	0.525

Sequence	shrunken log2 fold change
RRIRARPPRLPRPRPRPPTTPRP	0.775
RRIRARPPRLPRPRPRPPWTPRP	0.385
RRIRARPPRLPRPRPRPPWWPRP	1.03
RRIRARPPRLPRPRPRPPYNPRP	-0.399
RRIRARPPRLPRPRPRPQAHPRP	0.324
RRIRARPPRLPRPRPRPQDLPRP	-0.0381
RRIRARPPRLPRPRPRPQDQPRP	0.302
RRIRARPPRLPRPRPRPQFIPRP	-0.382
RRIRARPPRLPRPRPRPQHDPRP	-0.117
RRIRARPPRLPRPRPRPQHRPRP	-0.281
RRIRARPPRLPRPRPRPQHYPRP	-0.474
RRIRARPPRLPRPRPRPQIKPRP	0.048
RRIRARPPRLPRPRPRPQKCPRP	0.0806
RRIRARPPRLPRPRPRPQKNPRP	0.0395
RRIRARPPRLPRPRPRPQLTPRP	0.179
RRIRARPPRLPRPRPRPQLYPRP	0.0997
RRIRARPPRLPRPRPRPQMSPRP	0.0835
RRIRARPPRLPRPRPRPQNAPRP	0.243
RRIRARPPRLPRPRPRPQNRPRP	0.495
RRIRARPPRLPRPRPRPQNYPRP	-0.1
RRIRARPPRLPRPRPRPQSNPRP	-0.142
RRIRARPPRLPRPRPRPQTQPRP	0.628
RRIRARPPRLPRPRPRPQVPPRP	0.117
RRIRARPPRLPRPRPRPQWNPRP	-0.00397
RRIRARPPRLPRPRPRPQYHPRP	-0.398
